Tests used:
H-Ras(G12V)-GTP [1] = biological target: T1, H-Ras(G12V)-GTP (Homo sapiens (Human), UniProt P01112 1-166); test: radioactive in vitro pull-down on Ras-GTP beads (FIG. 6b)
T1 construct: also called H-Ras(G12V)-GppNHp; active H-Ras(G12V); not shown: avitag and His tag at the 5' (N-terminal) end

Rap1B(G12V)-GTP = biological target: T2, Rap1B(G12V)-GTP (Pan troglodytes (Chimpanzee), UniProt A5A6J7 1-166, biotinylated (pDW363 vector, BirA)); test: radioactive in vitro pull-down of [35S]Met-labelled RasIn2 on bead-immobilised target [c]
T2 construct: also called Rap1B-GTP
T2 chain: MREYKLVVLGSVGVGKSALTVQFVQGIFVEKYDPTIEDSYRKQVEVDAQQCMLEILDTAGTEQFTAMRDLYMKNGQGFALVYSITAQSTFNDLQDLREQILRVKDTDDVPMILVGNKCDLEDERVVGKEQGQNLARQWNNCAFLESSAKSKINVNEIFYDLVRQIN

Arf1-GTP = biological target: T3, Arf1-GTP (UniProt P84077 18-179, biotinylated (pDW363 vector, BirA)); test: as above
T3 construct: range 18-179

K-Ras(G12V, Y32R) [2] = biological target: T4, K-Ras(G12V, Y32R) (human, UniProt P01116-2 1-185, limits assumed, biotinylated (pDW363 vector, BirA)); test: radioactive in vitro pull-down of [35S]Met-labelled RasIn2 on bead-immobilised target [d]
T4 construct: Made by site-directed mutagenesis of pDW363 K-Ras(G12V); also called Y32R Switch I mutant; Y32R mutation

K-Ras(G12V)-GTP [3] = biological target: T5, K-Ras(G12V)-GTP (human, UniProt P79800 1-166 (Meleagris gallopavo entry), biotinylated in vivo on the avitag (BirA)); test: radioactive pull-down of RasIn1 on Ras-GTP beads; competitor Raf-RBD in molar excess
T5 construct: Active state: immobilised on neutravidin/streptavidin beads and exchanged with GTP or GTPγS; Same protein as m18, other nucleotide; also called K-Ras(G12V)-GTPγS; K-Ras(GTPγS); not shown: avitag and His tag at the 5' (N-terminal) end

K-Ras(G12V, Y32R) [4] = biological target: T4, K-Ras(G12V, Y32R); test: radioactive in vitro pull-down of [35S]Met-labelled RasIn1 on bead-immobilised target [b]
H-Ras(G12V)-GTP [5] = biological target: T1, H-Ras(G12V)-GTP; test: SPR, KD of RasIn2 against KD of the parent clone RasIn1
H-Ras(G12V)-GTP [6] = biological target: T1, H-Ras(G12V)-GTP; test: SPR, Biacore T100, biotinylated H-Ras(G12V)-GppNHp on streptavidin chip, MBP-intrabody fusion injected, 25 C
H-Ras(G12V)-GTP [7] = biological target: T1, H-Ras(G12V)-GTP; test: ELISA, biotin-labeled H-Ras(G12V)-GppNHp on streptavidin plate, anti-FLAG detection, OD450
H-Ras(G12V)-GTP [8] = biological target: T1, H-Ras(G12V)-GTP; test: SPR (Biacore T100), H-Ras(G12V) on a streptavidin chip exchanged with GppNHp, maltose binding protein-intrabody fusion injected [e]
K-Ras(G12V)-GTP [9] = biological target: T5, K-Ras(G12V)-GTP; test: radioactive in vitro pull-down of [35S]-labelled RasIn1 and point mutants on immobilised K-Ras-GTP [a]

B1: RasIn2 (designed binder)
chain: MLEVKEASPTSIQISWSIVFGKHDRYYRITYGETGGNSPVQEFTVPGSKSAATISGLKPGVDYTITVYAVTFRWPKRRLVRPISINYRT
notes: also called Clone 3; radiolabeled RasIn2
% binding (pull-down) (H-Ras(G12V)-GTP [1]): > 70% | binding result (Rap1B(G12V)-GTP): no binding | binding result (Arf1-GTP): no binding | binding result (K-Ras(G12V, Y32R) [2]): no binding

B2: RasIn1 (designed binder)
chain: MLEVKEASPTSIQISWGPVFSAYSRYYRITYGETGGNSPVQEFTVPGSKSAATISGLKPGVDYTITVYAVTFRWPMPRLVRPISINYRT
notes: also called radiolabeled RasIn1; parental RasIn1 clone
fold decrease of binding with Raf-RBD (K-Ras(G12V)-GTP [3]): 12 fold | binding result (K-Ras(G12V, Y32R) [4]): no binding

B3: RasIn2 maltose binding protein fusion (designed binder, not shown: large carriers)
chain: MLEVKEASPTSIQISWSIVFGKHDRYYRITYGETGGNSPVQEFTVPGSKSAATISGLKPGVDYTITVYAVTFRWPKRRLVRPISINYRT
fold increase in affinity versus RasIn1 (H-Ras(G12V)-GTP [5]): ~20 fold | Kd (H-Ras(G12V)-GTP [6]): 0.12 µM

B4: FLAG-tagged RasIn2 (designed binder, not shown: large carriers)
chain: MLEVKEASPTSIQISWSIVFGKHDRYYRITYGETGGNSPVQEFTVPGSKSAATISGLKPGVDYTITVYAVTFRWPKRRLVRPISINYRT
notes: also called RasIn2 protein
fold ELISA signal versus Raf-RBD (H-Ras(G12V)-GTP [7]): ~10 fold

B5: RasIn1 maltose binding protein fusion (designed binder, not shown: large carriers)
chain: MLEVKEASPTSIQISWGPVFSAYSRYYRITYGETGGNSPVQEFTVPGSKSAATISGLKPGVDYTITVYAVTFRWPMPRLVRPISINYRT
Kd (H-Ras(G12V)-GTP [6]): 2.1 µM | Kd (H-Ras(G12V)-GTP [8]): 2 µM

B6: RasIn1 R77A (designed binder)
chain: MLEVKEASPTSIQISWGPVFSAYSRYYRITYGETGGNSPVQEFTVPGSKSAATISGLKPGVDYTITVYAVTFRWPMPALVRPISINYRT
modifications: [35S]Met radiolabel from in vitro translation; letters unchanged
notes: FG loop mutant
binding result (K-Ras(G12V)-GTP [9]): no binding

B7: RasIn1 R72A (designed binder)
chain: MLEVKEASPTSIQISWGPVFSAYSRYYRITYGETGGNSPVQEFTVPGSKSAATISGLKPGVDYTITVYAVTFAWPMPRLVRPISINYRT
modifications: [35S]Met radiolabel from in vitro translation; letters unchanged
notes: FG loop mutant
binding result (K-Ras(G12V)-GTP [9]): no binding

B8: Clone 2 (designed binder)
chain: MLEVKEASPTSIQISWEYVFGRHDRYYRITYGETGGNSPVQEFTVPGSKSAATISGLKPGVDYTITVYAVTFRWPKRRLLWPISINYRT
notes: also called Clone 2 of maturation pool 5
% binding (pull-down) (H-Ras(G12V)-GTP [1]): > 70%

B9: Clone 1 (designed binder)
chain: MLEVKEASPTSIQISWGRVFSLDSRYYRITYGETGGNSPVQEFTVPGSKSAATISGLKPGVDYTITVYAVTFRWPNPRLVRPISINYRT
notes: also called Clone 1 of maturation pool 5
% binding (pull-down) (H-Ras(G12V)-GTP [1]): > 70%

B10: RasIn1 S24R (designed binder)
chain: MLEVKEASPTSIQISWGPVFSAYRRYYRITYGETGGNSPVQEFTVPGSKSAATISGLKPGVDYTITVYAVTFRWPMPRLVRPISINYRT
modifications: [35S]Met radiolabel from in vitro translation; letters unchanged
notes: Radiolabeled point mutant of RasIn1, BC loop
binding result (K-Ras(G12V)-GTP [9]): no binding

B11: Clone 4 (designed binder)
chain: MLEVKEASPTSIQISWGSVFRADSRYYRITYGETGGNSPVQEFTVPGSKSAATISGLKPGVDYTITVYAVTFRWPRPRLLWPISINYRT
notes: also called clone 4 of maturation pool 5
% binding (pull-down) (H-Ras(G12V)-GTP [1]): > 70%
